The nature of the data set: protein stability index of a GFP-peptide fusion (GPS, HEK-293T) (PSI 1-6); higher = more stable. The conditions noted are these: c terminus: a fixed tail appended.

± gives the standard deviation.
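Further: 24-mer peptide tiles fused after GFP, lentivirally expressed, FACS-sorted into six equal bins by GFP/DsRed ratio, decoded by Illumina sequencing, PSI is the read-weighted mean bin number.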

With VIFLLLFAPFIVYYFIMACDQYSC [DHCR7], the protein stability index (treatment: DMSO) is 2.41 ± 0.19 and the protein stability index (treatment: MLN4924 1 uM, 8 h) was determined as 2.39 ± 0.33.
On the same counts, the results for VISCEFAHNSNWYITFQSDTDAQQ [LARP4] are 2.47 ± 0.23 and 2.56 ± 0.19.
On to VKCNGALINTSDTVQHGAVYSLEP [SDE2], for which the protein stability index is, setting by setting: (treatment: DMSO) 3.57 ± 0.5; (treatment: MLN4924 1 uM, 8 h) 3.75 ± 0.33.
For VKSIVVKGYNIWTGGPDACLRCWD [TLE6] the same measures were 2.37 ± 0.3 and 2.24 ± 0.43.
For VLAGAAEEGFMTAELAGVIKRLWK [GNAI1] the same measures were 2.38 ± 0.34 and 2.45 ± 0.057.
On to VLIRYPNSLDTTSWAWRGPGVLKV [LPCAT4], for which the protein stability index is, setting by setting: (treatment: DMSO) 2.77 ± 0.23; (treatment: MLN4924 1 uM, 8 h) 2.69 ± 0.8.
Turning to VLLMHMPAEQAFWCLVQICEKYLP [TBC1D10A], the protein stability index was 2.96 ± 0.37 (treatment: DMSO) and 2.88 ± 0.57 (treatment: MLN4924 1 uM, 8 h).
Turning to VLSSTTLLPRQPLPLGIKVYEDET [PALM], the protein stability index worked out at 4.23 ± 0.21 (treatment: DMSO) and 4.18 ± 0.16 (treatment: MLN4924 1 uM, 8 h).
On the same counts, the results for VLSVSKILHIPQVTKLCVQFLNDQ [KLHL14] are 2.52 ± 0.48 and 2.29 ± 0.35.
On the same counts, the results for VLVEKYGWPHEDAAQFTDFLIPML [SRPK2] are 2.38 ± 0.26 and 2.4 ± 0.26.
For VLYPVPLESYEDIHGTLHLERLAY [PRAME] the same measures were 2.31 ± 0.23 and 2.38 ± 0.36.
Take VNDHLLNFVRERTLDKRWRVRKEA [PDS5B]: the protein stability index is 2.74 ± 0.44 (treatment: DMSO) and 3.08 ± 0.35 (treatment: MLN4924 1 uM, 8 h).
On the same counts, the results for VNNTTLTNSTPLRAACFDGHLEIV [FEM1C] are 2.76 ± 0.34 and 2.61 ± 0.38.
For the sequence VPVVTPTASTAPPVPATAPSPAPA [SNAP91], the protein stability index reads like this: (treatment: DMSO) 4.98 ± 0.17; (treatment: MLN4924 1 uM, 8 h) 5.05 ± 0.11.
On the same counts, the results for VQRKSDFDQTVFQEVFEPPHYELC [NETO1] are 3.44 ± 0.23 and 3.62 ± 0.3.
For VREIVKECSNIPLSQPQQGEAMLA [GAN] the same measures were 4.28 ± 0.37 and 4.31 ± 0.36.
On the same counts, the results for VRLQSQRPSMASELMPSSRLWSLS [SLC25A39] are 2.64 ± 0.32 and 2.58 ± 0.17.
Take VRYSDCCERVVINVSGLRFETQMK [KCNA4]: the protein stability index runs as follows: (treatment: DMSO) 2.31 ± 0.46; (treatment: MLN4924 1 uM, 8 h) 2.33 ± 0.37.
On the same counts, the results for VSFVERILKSQKERQCALRVFKAR [FBXO39] are 2.35 ± 0.41 and 2.55 ± 0.21.
In the case of VSLHDRIYVIGGYDGRSRLSSVEC [KLHL12], the protein stability index was determined as 1.96 ± 0.16 (treatment: DMSO) and 2.19 ± 0.17 (treatment: MLN4924 1 uM, 8 h).
For VSSQRFKSSVYRRYNDFVVFQEML [SNX8] the same measures were 2.1 ± 0.21 and 2.21 ± 0.39.
On the same counts, the results for VTAGCGFGKDFRKGLLKKGACYGD [PPTC7] are 2.79 ± 0.56 and 2.65 ± 0.11.
With VTGLMEATQMMVDIDGDVLVFLEL [RHOBTB2], the protein stability index was 3.31 ± 0.2 (treatment: DMSO) and 3.29 ± 0.8 (treatment: MLN4924 1 uM, 8 h).
On the same counts, the results for VTPEAKDLINKMLTINPAKRITAS [CAMK2D] are 3.29 ± 0.29 and 3.33 ± 0.2.
Regarding VTQREHSSEHVTESVADLLALEEP [SLC6A17], the protein stability index runs as follows: (treatment: DMSO) 5.3 ± 0.47; (treatment: MLN4924 1 uM, 8 h) 5.12 ± 0.3.
On the same counts, the results for VVKVLLESGASIEDHNENGHTPLM [ANKRD17] are 3.17 ± 0.25 and 3.25 ± 0.26.
Regarding VVSTSGEQMKVYKCEHCRVLFLDH [IKZF1], the protein stability index stood at 2.69 ± 0.4 (treatment: DMSO) and 2.3 ± 0.64 (treatment: MLN4924 1 uM, 8 h).
On the same counts, the results for VWDMRSGQCVQAFETHESDINSVR [GNB5] are 3.48 ± 0.24 and 3.56 ± 0.15.
For VYSCAFSPDSSMLCSVGASKAVFL [WSB1] the same measures were 2.8 ± 0.5 and 2.86 ± 0.49.
For the sequence WAGFMVLLMIPWGSAAKLVCYFTN [CHIT1], the protein stability index reads like this: (treatment: DMSO) 2.69 ± 0.069; (treatment: MLN4924 1 uM, 8 h) 2.11 ± 0.13.
For WFESVLEPGYIDSEIGTSDQIVPE [TRIB1] the same measures were 4.44 ± 0.2 and 4.09 ± 0.18.
In the case of WGCSCCPPETKHQALSGTPKKGPA [TSPAN10], the protein stability index reads like this: (treatment: DMSO) 4.13 ± 0.41; (treatment: MLN4924 1 uM, 8 h) 4.44 ± 0.26.
For WKSHLKKVQKPLLQAPFLPPKAPP [RHOBTB1] the same measures were 3.21 ± 0.17 and 3.37 ± 0.34.
For WLLLLTRGLVGVGEASYSTIAPTL [SPNS1] the same measures were 2.67 ± 0.44 and 2.83 ± 0.32.
For the sequence WNVLMWTSLFLGNGVLLCFYSQEW [SOAT1], the protein stability index is 2.99 ± 0.93 (treatment: DMSO) and 2.7 ± 0.38 (treatment: MLN4924 1 uM, 8 h).
Turning to WPPSFLSEFRALQFSLMLCAFVGA [SPNS1], the protein stability index runs as follows: (treatment: DMSO) 3.23 ± 0.53; (treatment: MLN4924 1 uM, 8 h) 2.85 ± 0.64.

The values are drawn from the supplement of paper PMC10567573.
